According to patent US20210188940A1 (BIOAGE LABS, published 2021):

T1: HMGB1 (amphoterin) (UniProt P09429 1-215, limits assumed)
T1 sequence (looked up): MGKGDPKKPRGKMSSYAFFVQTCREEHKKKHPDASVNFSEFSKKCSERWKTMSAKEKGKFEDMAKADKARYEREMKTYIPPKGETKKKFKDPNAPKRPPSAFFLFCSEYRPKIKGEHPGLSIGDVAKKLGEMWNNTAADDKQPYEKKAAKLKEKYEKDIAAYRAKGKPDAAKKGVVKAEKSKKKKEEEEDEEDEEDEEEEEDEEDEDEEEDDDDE

T2: S100A9 (UniProt P06702 1-114, limits assumed)
T2 sequence (looked up): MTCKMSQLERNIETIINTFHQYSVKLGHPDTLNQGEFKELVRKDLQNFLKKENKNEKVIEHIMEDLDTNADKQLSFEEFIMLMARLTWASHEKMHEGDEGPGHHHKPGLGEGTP

T3: S100A12 (UniProt P80511 1-92, limits assumed)
T3 sequence (looked up): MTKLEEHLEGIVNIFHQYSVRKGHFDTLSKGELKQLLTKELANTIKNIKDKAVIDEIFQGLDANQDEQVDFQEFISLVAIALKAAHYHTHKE


Assays:
Assay in all cases: ELISA, ligand coated on plate, RAGE-Fc titrated, anti-IgG Fc-HRP detection; apparent Kd
[1] = target: T4, CML-HSA (carboxymethylated human serum albumin) (human, UniProt P02768 25-609, carboxymethylated (CML); modified sites not stated)
T4 construct: An advanced glycation end-product form of HSA, coated on the ELISA plate
T4 sequence (P02768 25-609 limits assumed): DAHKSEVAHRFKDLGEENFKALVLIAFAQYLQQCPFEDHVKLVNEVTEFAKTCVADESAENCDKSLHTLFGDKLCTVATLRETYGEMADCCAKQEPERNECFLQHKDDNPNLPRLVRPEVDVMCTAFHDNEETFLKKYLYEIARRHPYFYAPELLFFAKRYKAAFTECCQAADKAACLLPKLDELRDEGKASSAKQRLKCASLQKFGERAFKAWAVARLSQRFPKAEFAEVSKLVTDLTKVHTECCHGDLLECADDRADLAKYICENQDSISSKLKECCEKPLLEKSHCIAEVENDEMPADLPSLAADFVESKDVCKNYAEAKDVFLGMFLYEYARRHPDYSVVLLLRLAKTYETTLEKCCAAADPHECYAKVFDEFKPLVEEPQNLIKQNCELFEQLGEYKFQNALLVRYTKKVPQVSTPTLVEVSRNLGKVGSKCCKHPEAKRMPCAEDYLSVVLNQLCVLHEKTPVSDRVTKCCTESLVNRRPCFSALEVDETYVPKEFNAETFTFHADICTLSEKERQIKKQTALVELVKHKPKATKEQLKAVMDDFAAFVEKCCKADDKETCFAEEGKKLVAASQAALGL
Procedure: (§1) Functional ELISA assays were performed to assess the ligand binding characteristics of RAGE-Fc fusion proteins. Apparent binding affinities of RAGE-Fc fusion proteins to the RAGE ligands CML-HSA, HMGB1, S100A9 and S100A12 were measured for the following fusion proteins: Construct #1 (SEQ ID NO: 5), Construct #9 (SEQ ID NO: 53), Construct #10 (SEQ ID NO: 12), Construct #12 (SEQ ID NO: 15), and Construct #16 (SEQ ID NO: 16). Previous experiments were carried out to determine fundamental functionality of an ELISA, optimal coating concentrations and volumes, a dynamic range for the RAGE-Fc constructs, as well as optimized antibody dilutions and TMB development times.
(§2) RAGE ligands CML-HSA, HMGB1, S100A9 and S100A12 were separately coated onto a coated plate (MaxiSorp™) at a concentration of 50 nanomolar (nM), 100 microliters (μL) per well. RAGE ligand CML-HSA was separately coated onto a coated plate (MaxiSorp™) at a concentration of 100 nanograms (ng), 100 μL per well. The plates were then incubated overnight at 4° C. to allow the protein to bind to the plate coating. Following the coating step, the plates were washed once with 150 μL of wash solution (2.67 mM potassium chloride, […], 136.9 mM sodium chloride, 8.10 mM sodium phosphate dibasic, 0.05% Tween-20). […] After the blocking step, two washes were performed with the wash solution. The RAGE-Fc fusion protein was then incubated on the wells in log10 dilution with each separate ligand for 120 minutes at 37° C. while shaking. After the RAGE-Fc binding step, three washes were performed with the wash solution. Binding of the RAGE-Fc fusion to […], HMGB1, S100A9, and S100A12 was detected with a horseradish peroxidase (HRP) conjugated antibody with antigen specificity to IgG Fc (Abcam, Cat. No. ab99759). 100 μL of antibody diluted 1:5000 in DBPS was added to the assay wells, followed by 60 minutes of incubation at 37° C. while shaking. The wells were then washed four times with the wash solution. 100 μL of TMB (ThermoFisher Scientific, Cat. No. 34029) was then added to each well.

[2] = target: T1, HMGB1 (amphoterin)
Procedure: as §1, §2

[3] = target: T2, S100A9
Procedure: as §1, §2

[4] = target: T3, S100A12
Procedure: as §1, §2

Row | Binder | Kd [1] [nM] | Kd [2] [nM] | Kd [3] [nM] | Kd [4] [nM]
1 | Construct #12: RAGE V-C1-C2-V1stem(M/A)-IgG2 lower hinge-(IgG4CH2-CH3) (Fc fusion, also called esRAGE-Fc fusion) AQNITARIGEPLVLKCKGAPKKPPQRLEWKLNTGRTEAWKVLSPQGGGPWDSVARVLPNGSLFLPAVGIQDEGIFRCQAMNRNGKETKSNYRVRVYQIPGKPEIVDSASELTAGVPNKVGTCVSEGSYPAGTLSWHLDGKPLVPNEKGVSVKEQTRRHPETGLFTLQSELMVTPARGGDPRPTFSCSFSPGLPRHRALRTAPIQPRVWEPVPLEEVQLVVEPEGGAVAPGGTVTLTCEVPAQPSPQIHWMKDGVPLPLPPSPVLILPEIGPQDQGTYSCVATHSSHGPQESRAVSISIIEPGEEGPTAGEGFDKVREAEDSPQHAVECPPCAPPVAGGPSVFLFPPKPKDTLMISRTPEVTCVVVDVSQEDPEVQFNWYVDGVEVHNAKTKPREEQFNSTYRVVSVLTVLHQDWLNGKEYKCKVSNKGLPSSIEKTISKAKGQPREPQVYTLPPSQEEMTKNQVSLTCLVKGFYPSDIAVEWESNGQPENNYKTTPPVLDSDGSFFLYSRLTVDKSRWQEGNVFSCSVMHEALHNHYTQKSLSLSLGK | 39 | 7 | 25 | 44
2 | Construct #16: RAGE V-C1-C2-V1stem(M/A)-IgG2 lower hinge-(IgG4CH2-CH3)-YTE (Fc fusion, also called #12 + YTE; esRAGE-Fc fusion) AQNITARIGEPLVLKCKGAPKKPPQRLEWKLNTGRTEAWKVLSPQGGGPWDSVARVLPNGSLFLPAVGIQDEGIFRCQAMNRNGKETKSNYRVRVYQIPGKPEIVDSASELTAGVPNKVGTCVSEGSYPAGTLSWHLDGKPLVPNEKGVSVKEQTRRHPETGLFTLQSELMVTPARGGDPRPTFSCSFSPGLPRHRALRTAPIQPRVWEPVPLEEVQLVVEPEGGAVAPGGTVTLTCEVPAQPSPQIHWMKDGVPLPLPPSPVLILPEIGPQDQGTYSCVATHSSHGPQESRAVSISIIEPGEEGPTAGEGFDKVREAEDSPQHAVECPPCAPPVAGGPSVFLFPPKPKDTLYITREPEVTCVVVDVSQEDPEVQFNWYVDGVEVHNAKTKPREEQFNSTYRVVSVLTVLHQDWLNGKEYKCKVSNKGLPSSIEKTISKAKGQPREPQVYTLPPSQEEMTKNQVSLTCLVKGFYPSDIAVEWESNGQPENNYKTTPPVLDSDGSFFLYSRLTVDKSRWQEGNVFSCSVMHEALHNHYTQKSLSLSLGK | 35 | 7 | 27 | 36
